± gives the standard deviation of the averaged measurements.
tested on: ATP; assay: switch fluorescence ratio, 500 uM ATP over buffer (Cy3 cluster intensity, sum of 5 cycles each) (fold (ratio)); higher = stronger signal-on switching upon ATP binding; sequences stand for … in TCGTCGGCAGCGTCAGATGTGTATAAGAGACAGTTTTTTTTTTTTTTTTTTTTTTTTT…TC; details: aptamer strand: ATP DNA aptamer (quencher-CACCTGGGGGAGTATTGCGGAGGAAGG + anchor), 100 nM annealed; ATP concentration: 500 uM
How it was run: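 Imaging in selection buffer was followed by imaging after 15 min with 500 uM ATP at 22 °C, for Cy3-labelled switching-strand clusters annealed to 100 nM quencher-labelled ATP aptamer on a modified Illumina MiSeq flow-cell. Five of these buffer/ATP cycles ran, separated by NaOH stripping and re-annealing. The fluorescence ratio per cluster is summed target-cycle over summed buffer-cycle Cy3 intensity, averaged per switch-domain sequence; clusters outside 100-1000 RFU were removed.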
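Further: ATP exposure 15 min at 22 °C before imaging.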

Sequence | switch fluorescence ratio
TGGTGATTGT | 1.02 ± 0.017
TGGTGCATGC | 0.957 ± 0.019
TGGTGGAAAA | 0.973 ± 0.02
TGGTGGATCT | 0.9904 ± 0.0063
TGGTGGCGCG | 0.976 ± 0.027
TGGTGGCGG | 0.952 ± 0.037
TGGTGGCTTT | 0.996 ± 0.015
TGGTGGGACG | 1.06 ± 0.14
TGGTGGGGG | 1.01 ± 0.051
TGGTGGGTAC | 1.03 ± 0.084
TGGTGGGTGG | 1.03 ± 0.058
TGGTGGTGTC | 0.985 ± 0.05
TGGTGTATTT | 1.01 ± 0.011
TGGTGTGATG | 1.007 ± 0.0026
TGGTGTGGGG | 0.993 ± 0.021
TGGTGTGGTT | 1.02 ± 0.021
TGGTGTGTCA | 1.005 ± 0.0092
TGGTTAAACT | 0.98 ± 0.027
TGGTTAACGC | 0.999 ± 0.013
TGGTTACATC | 1.04 ± 0.015
TGGTTACCCC | 1.001 ± 0.01
TGGTTACGTC | 0.985 ± 0.026
TGGTTCAGCC | 0.9868 ± 0.0033
TGGTTCATGT | 0.9939 ± 0.008
TGGTTCTATT | 1.02 ± 0.064

Sequence | switch fluorescence ratio
TGGTTGAAAT | 0.975 ± 0.028
TGGTTGCAGC | 1 ± 0.055
TGGTTGCTAA | 1.01 ± 0.02
TGGTTGG | 0.994 ± 0.0015
TGGTTGGAGT | 1.006 ± 0.0035
TGGTTGGATC | 0.984 ± 0.019
TGGTTGGGCA | 0.993 ± 0.055
TGGTTGGGGG | 0.995 ± 0.024
TGGTTGGTGG | 1.05 ± 0.09
TGGTTGTCCG | 1.06 ± 0.059
TGGTTTAGGC | 0.997 ± 0.011
TGGTTTCCCG | 0.975 ± 0.044
TGGTTTGTTA | 1.02 ± 0.022
TGGTTTGTTG | 0.9686 ± 0.0064
TGGTTTTCAG | 0.997 ± 0.015
TGTAAAAAGG | 0.98 ± 0.025
TGTAAAATGT | 0.998 ± 0.029
TGTAAACCGC | 1.2 ± 0.16
TGTAAATGTT | 1.03 ± 0.04
TGTAACTGAG | 1.0374 ± 3e-05
TGTAAGGACT | 1.01 ± 0.038
TGTAAGGGGG | 0.989 ± 0.039
TGTAAGGGTT | 0.994 ± 0.027
TGTAATAGGG | 0.979 ± 0.013
TGTAATCGTT | 0.964 ± 0.07

Sequence | switch fluorescence ratio
TGTAATTTGT | 1 ± 0.027
TGTACGATGC | 1.12 ± 0.014
TGTACGGATT | 1.0016 ± 0.00058
TGTACGGGGG | 0.949 ± 0.021
TGTACTGGGC | 1.06 ± 0.049
TGTAGATTGT | 1.01 ± 0.049
TGTAGCATGT | 2.08 ± 1.3
TGTAGGGACG | 0.957 ± 0.12
TGTAGGGGGT | 1.01 ± 0.041
TGTAGTAAGT | 1.01 ± 0.06
TGTAGTACTG | 1.02 ± 0.043
TGTAGTCTGG | 0.969 ± 0.024
TGTAGTGAA | 1.1 ± 0.16
TGTATATAGG | 0.955 ± 0.021
TGTATCGGGT | 0.979 ± 0.035
TGTATGC | 0.958 ± 0.051
TGTATGTGGG | 0.999 ± 0.028
TGTATGTGGT | 1 ± 0.048
TGTATTTTGG | 0.984 ± 0.029
TGTCACAGGG | 1.063 ± 0.007
TGTCACCAGT | 1.02 ± 0.016
TGTCACTGTT | 0.965 ± 0.022
TGTCAGAAGC | 0.994 ± 0.012
TGTCCGGTTT | 1.25 ± 0.36
TGTCGAGGGC | 0.965 ± 0.021

Sequence | switch fluorescence ratio
TGTCGCGTAT | 0.992 ± 0.013
TGTCGGAGAT | 0.987 ± 0.018
TGTCGGATTA | 0.979 ± 0.011
TGTCGGATTT | 1.13 ± 0.24
TGTCGGGCAG | 0.9843 ± 0.0038
TGTCGGTAAT | 1.03 ± 0.022
TGTCGTAATT | 1 ± 0.011
TGTCGTGGGA | 1.01 ± 0.038
TGTCTATGGG | 0.988 ± 0.023
TGTCTCTACG | 1.021 ± 0.01
TGTCTGGGGT | 1 ± 0.019
TGTCTTTTGA | 1.003 ± 0.0059
TGTGAACAGT | 0.975 ± 0.044
TGTGAACGTA | 1.01 ± 0.052
TGTGAAGAAA | 0.977 ± 0.06
TGTGAATAGG | 1.02 ± 0.065
TGTGACTGCC | 1.04 ± 0.055
TGTGAGCTTT | 0.975 ± 0.03
TGTGAGGGA | 1 ± 0.029
TGTGAGTCGG | 0.948 ± 0.03
TGTGATAATG | 0.9831 ± 0.0017
TGTGATGTCA | 1.01 ± 0.016
TGTGATTCTA | 0.972 ± 0.017
TGTGATTTAC | 1.05 ± 0.011
TGTGCCGCGC | 1.06 ± 0.07

Sequence | switch fluorescence ratio
TGTGCCTGCT | 1 ± 0.043
TGTGCTAGGG | 0.98 ± 0.028
TGTGCTATGG | 1.01 ± 0.02
TGTGCTATGT | 0.995 ± 0.028
TGTGGAACGT | 0.9813 ± 0.0082
TGTGGAAGGA | 0.9862 ± 0.0039
TGTGGAAGGG | 0.981 ± 0.019
TGTGGAGAAG | 0.974 ± 0.025
TGTGGCACTT | 0.998 ± 0.022
TGTGGCTTCC | 2.25 ± 0.099
TGTGGGAGAG | 0.973 ± 0.038
TGTGGGAGGC | 1.04 ± 0.018
TGTGGGGAGT | 0.952 ± 0.019
TGTGGGGATA | 0.9904 ± 0.0011
TGTGGGGCAG | 0.968 ± 0.03
TGTGGGGCTT | 1.01 ± 0.035
TGTGGGGGG | 0.951 ± 0.025
TGTGGGTTTA | 0.988 ± 0.033
TGTGGTAAGG | 0.98472 ± 0.0006
TGTGGTCCAA | 0.9855 ± 0.0036
TGTGGTCGGG | 0.993 ± 0.038
TGTGGTGGCA | 1 ± 0.058
TGTGGTGGGA | 0.98 ± 0.02
TGTGGTGTGT | 1 ± 0.03
TGTGGTTACA | 0.989 ± 0.025

Sequence | switch fluorescence ratio
TGTGGTTATT | 0.991 ± 0.025
TGTGTAATTT | 0.999 ± 0.012
TGTGTCAGAC | 1.01 ± 0.03
TGTGTCAGGG | 1.01 ± 0.022
TGTGTCAGGT | 0.997 ± 0.05
TGTGTGAAGT | 1.01 ± 0.059
TGTGTGATTC | 1.3 ± 0.49
TGTGTGGGGG | 1.01 ± 0.031
TGTGTGTGGT | 1.006 ± 0.0062
TGTGTTAAGA | 0.9898 ± 0.0095
TGTGTTAGAA | 1.01 ± 0.015
TGTGTTATGG | 0.968 ± 0.049
TGTGTTCTGG | 0.986 ± 0.011
TGTGTTTAAA | 0.967 ± 0.021
TGTGTTTTGT | 0.979 ± 0.02
TGTTAAAAAG | 0.991 ± 0.013
TGTTAAGGGC | 1 ± 0.039
TGTTACATGT | 1.04 ± 0.041
TGTTAGAGGG | 1.01 ± 0.063
TGTTAGATAG | 1 ± 0.025
TGTTAGGC | 1.01 ± 0.05
TGTTAGGGCT | 0.918 ± 0.021
TGTTAGGGGA | 1.01 ± 0.02
TGTTAGTCCC | 0.9897 ± 0.0022
TGTTAGTCGT | 1.013 ± 0.0091

Sequence | switch fluorescence ratio
TGTTAGTGGG | 1.02 ± 0.032
TGTTATCAGG | 1.01 ± 0.038
TGTTATTACC | 1 ± 0.013
TGTTCCGTCT | 0.9732 ± 0.0095
TGTTCGAGGC | 1.03 ± 0.013
TGTTCGGAAA | 1.01 ± 0.014
TGTTCTAGTA | 1.27 ± 0.45
TGTTCTTCCG | 1.23 ± 0.1
TGTTCTTGGG | 0.985 ± 0.026
TGTTGAGCAA | 1.6 ± 0.013
TGTTGATAGC | 0.992 ± 0.037
TGTTGATAGT | 1 ± 0.023
TGTTGATGGT | 0.976 ± 0.031
TGTTGATTTT | 1.03 ± 0.043
TGTTGCCCCT | 1.02 ± 0.051
TGTTGCCGAT | 0.986 ± 0.019
TGTTGCTAGG | 0.992 ± 0.031
TGTTGGGGGA | 0.979 ± 0.03
TGTTGGTCTG | 0.978 ± 0.031
TGTTGGTCTT | 0.952 ± 0.032
TGTTGGTGGC | 1.02 ± 0.071
TGTTGGTTGT | 0.9935 ± 0.0067
TGTTGTAGGG | 1.02 ± 0.02
TGTTGTAGTG | 0.973 ± 0.017
TGTTGTGTTA | 0.9965 ± 5.6e-06

Sequence | switch fluorescence ratio
TGTTGTTTAC | 1.0216 ± 0.00012
TGTTTAAGAC | 1.05 ± 0.092
TGTTTACACT | 1.01 ± 0.051
TGTTTACGGT | 0.983 ± 0.032
TGTTTAGAAA | 1.01 ± 0.014
TGTTTAGGGT | 0.997 ± 0.029
TGTTTATGGG | 1.01 ± 0.033
TGTTTATTCG | 0.97 ± 0.034
TGTTTCATGC | 1.07 ± 0.16
TGTTTCATTG | 0.976 ± 0.018
TGTTTCCTTT | 1 ± 0.019
TGTTTCGTGT | 0.982 ± 0.032
TGTTTCTAAT | 0.999 ± 0.02
TGTTTCTGGG | 0.999 ± 0.05
TGTTTGAAGC | 0.9679 ± 0.0096
TGTTTGACGT | 1.03 ± 0.014
TGTTTGAGGG | 1.02 ± 0.024
TGTTTGAGTT | 0.987 ± 0.039
TGTTTGCTGT | 1.03 ± 0.074
TGTTTGCTTG | 0.993 ± 0.021
TGTTTGGAAG | 1.05 ± 0.056
TGTTTGGGCT | 1.02 ± 0.041
TGTTTGGGTT | 0.978 ± 0.012
TGTTTTAAAG | 1.01 ± 0.061
TGTTTTACTA | 0.986 ± 0.031
